Molecular target: T1, Isu1, mature form (amino acids 35-165) (yeast, UniProt Q03020 35-165)
T1 sequence (looked up): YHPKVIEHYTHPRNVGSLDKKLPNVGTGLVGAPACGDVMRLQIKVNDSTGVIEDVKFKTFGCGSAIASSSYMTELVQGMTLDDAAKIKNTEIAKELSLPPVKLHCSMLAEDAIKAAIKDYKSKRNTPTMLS
Assay: other fluorescence titration

B1: Yfh1 (yeast frataxin), wild type, mature form (amino acids 52-174), holo form (natural protein, S. cerevisiae (yeast), UniProt Q07540 52-174, looked up)
chain: VESSTDGQVVPQEVLNLPLEKYHEEADDYLDHLLDSLEELSEAHPDCIPDVELSHGVMTLEIPAFGTYVINKQPPNKQIWLASPLSGPNRFDLLNGEWVSLRNGTKLTDILTEEVEKAISKSQ
binding result: binds
